Data on 3 proteins can be found in article PMC3792407, “Overexpression of chloroplast NADPH-dependent thioredoxin reductase in Arabidopsis enhances leaf growth and elucidates in vivo function of reductase and thioredoxin domains” (Frontiers in Plant Science, 2013).

A word on the stoichiometry N: it is the number of molecules, sites or subunits per partner or assembly.

Positions count from the first letter of the chain named. In names and notes the source's numbering stands.

B1: NADPH-dependent thioredoxin reductase C (NTRC), endogenous in wild-type Arabidopsis leaves (enzyme, UniProt O22229 68-529, looked up)
chain: ATANSPSSSSSGGEIIENVVIIGSGPAGYTAAIYAARANLKPVVFEGYQMGGVPGGQLMTTTEVENFPGFPDGITGPDLMEKMRKQAERWGAELYPEDVESLSVTTAPFTVQTSERKVKCHSIIYATGATARRLRLPREEEFWSRGISACAICDGASPLFKGQVLAVVGGGDTATEEALYLTKYARHVHLLVRRDQLRASKAMQDRVINNPNITVHYNTETVDVLSNTKGQMSGILLRRLDTGEETELEAKGLFYGIGHSPNSQLLEGQVELDSSGYVLVREGTSNTSVEGVFAAGDVQDHEWRQAVTAAGSGCIAALSAERYLTSNNLLVEFHQPQTEEAKKEFTQRDVQEKFDITLTKHKGQYALRKLYHESPRVILVLYTSPTCGPCRTLKPILNKVVDEYNHDVHFVEIDIEEDQEIAEAAGIMGTPCVQFFKNKEMLRTISGVKMKKEYREFIEANK
notes: NTRC of Arabidopsis thaliana (At2g41680), mature chloroplast protein without the putative transit peptide of 67 amino acids (ChloroP); calculated mass of mature NTRC 50890 Da, band of about 50 kDa; printed residue numbers count on the precursor with the transit peptide; The cleavage site of the transit peptide is only a ChloroP prediction (67 amino acids); also called plastid-localized …
B2: full-length NTRC with C454S/C457S in the TRXd active site (OE-SGPS) (enzyme, Arabidopsis thaliana, UniProt O22229 68-529, looked up)
chain: B1 chain with C387S, C390S
notes: signal peptide in the construct (chloroplast transit peptide, putative 67 amino acids, ChloroP); full-length NTRC of Arabidopsis thaliana (At2g41680) with both redox cysteines of the TRXd motif CGPC changed to serine; in the leaf extract it runs as the mature protein of about 50 kDa; also called NTRC-SGPS; source: transgenic Arabidopsis (ntrc knockout background, CaMV 35S promoter, pGWR8), …
B3: full-length NTRC with C217S/C220S in the NTRd active site (OE-SAIS) (enzyme, Arabidopsis thaliana, UniProt O22229 68-529, looked up)
chain: B1 chain with C150S, C153S
notes: signal peptide in the construct (chloroplast transit peptide, putative 67 amino acids, ChloroP); full-length NTRC of Arabidopsis thaliana (At2g41680) with both redox cysteines of the NTRd motif CAIC changed to serine; in the leaf extract it runs as the mature protein of about 50 kDa; source: transgenic Arabidopsis (ntrc knockout background, CaMV 35S promoter, pGWR8), soluble leaf extract

This series concerns the molecule itself. Description: SDS-PAGE of unheated samples with Western blot; soluble leaf proteins extracted in 50 mM HEPES, 5 mM NaCl, 10 mM MgCl2 with or without 2 mM DTT; solubilised in SDS buffer with or without mercaptoethanol and kept on ice (0°C), not heated; 10% acrylamide gel; blot with anti-NTRC or anti-NTRB antibody. A general note: In western blotting, separated proteins are transferred to a membrane and probed.
Consider B1, for which the “stoichiometry N” value stood at 2.

For B2, the “stoichiometry N” value amounted to 2.

With B3, the “stoichiometry N” value came out at 2.
